Assay results from the nanobody polyreactivity screen of Harvey et al. (2022).

Experiment: yeast display, Sf9 membrane polyspecificity reagent, FACS + sequencing; frameworks hold sequencing errors
How it was run: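 Polyreactivity labels are assigned by the sorting gate from which each nanobody was recovered. The gates were low and high (top ~1%), set on anti-HA fluorescence for expression and streptavidin fluorescence for reagent binding. Before sorting, galactose-induced (36–48 hours) yeast display cells were stained for 1 hour at 4 °C with 10% biotinylated, detergent-solubilized Sf9 membrane reagent.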

Row | Sequence | polyreactivity (PSR sort gate)
1 | QVQLVESGGGLVQAGGSLRLSCAASGRIFKIYAMGWYRQAPGKEREFVATISSGGRTNYADSVKGRFTISRDNAKNTVYLQMNSLKPEDTAVYYCNAGARVLYETESFDYWGQGIQVTVSS | low polyreactivity
2 | QVQLVESGGGLVQAGGSLRLSCAPSGSTFGFYAMGWYIQAPGKERELVAAISRGGSTNYADSVKGRFTISRDNAKNTVYLQMNSLKPEDTAVYYCAKAYHATSDYWGQGTQVTVSS | low polyreactivity
3 | QVQLVESGGGLVQAGGSLRLSCAASGSIFGVNAMGWYRQAPGKERELVASITGGDSTNYADSVKGRFTISRDNAKNTVYLQMNSLKPEDSAVYYCAKDHYYRYEEGDYWGQGTQVTVSS | low polyreactivity
4 | QVQLVESGGGLVQAGGSLRLSCAASGIIFYKYAMGWYRQAPGKERELVAAITSGGGRTYYADSVKGRFTISRDNAKNTVYLQMNSLKPEDTAVYYCAATRPATYAAYDYWGQGTQVTVSS | high polyreactivity
5 | QVQLVESGGGLVQAGGSLRLSCAASGIFDYYVMGWYRQAPGKERELVAAISKSDGSTYYADSVKGRFTISRDNAKNTVYLQMNSLKQEDTAVYYCNAKLYYNRMDYWGQGTQVTVSS | low polyreactivity
6 | QVQLVESGGGLVQAGGSLRLSCAASGRIFLGNAMGWYRQAPWKESELVAAITNGGGSTSYADSVKGRFTISRDNAKNTVYLQMNSLKPEDTAVYYCARGYKKSVQRFEYRGQGTQVTVSS | high polyreactivity
7 | QVQLVESGGGLVQAGGSLRLSCAASGRTFYRNAMGWYRQAPGKERELVAAISGSGVRTYYADSVKGRFTISRDNAKNTVYLQMNSLKPEDTAVYYCARSVTWFRGRFSPDYGSWGQGTQVTVSS | high polyreactivity
8 | QVQLGESGGGLVQAGVSLRLSCAASGNTFYWNAMGWYRQAPGKERELVAAISTTGVSTYYADSVKGRFTISRDNAKNTVYLQMNSLKPEDTAVYYCAVDPPYSNPITINEDYWGQGTQVTVSS | low polyreactivity
9 | QVQLVESGGGLVQAGGSLRLTCAASGSTFTGYAMGWSIQAPGKERELVAGITGSGGSTYYADSVKGRFTISRDNAKNTVYLQMNSLKPEDTAVYYCNAVHWGGTYWGLDYWGQGTQVTVSS | low polyreactivity
10 | PVQLVESGGGLVQAGGSLRISCAASGRSFYVYAMGWYRQAPGKEREFVARITSNGGSPTYADSVKGRFTISRDKAKNTVYLQMNSLKPEDTAVYYCNADDGIHPNASPSFPQYDYWGPGTQVTVSS | low polyreactivity
11 | QVQLHESGGGLVQAGGSLRLSCAASGTISYAGPMGWYRQAPGKEREFVAGIGVGSNTNYADSVKGRYTIIRDNAKNTVYLQMNSLKPVDTAVYYCAVGGYAPLGRPYWGQGTQVTVSS | low polyreactivity
12 | QVQLVESGGGLVQAGGSLRLSCAASGRTIGYYAMGWYRQAPGKERELDAAITRSGGSTYYADSVKGRFTISRDNAKNTVYLQMKSLKPEDTAVYYCATYSVSGKPLGYWGHGTQVTVSS | low polyreactivity
13 | QVQLVESGGGLVQAGGSLRLSCAASGSTRLYAMGWYRQAPGKERELVAAIRSSGSSTYYADSVKGRFTISRDNAKNTVYLQMNSLKPEDTAVYYCNADRIRKGWRYDYWGQGTQVTVSS | high polyreactivity
14 | QVQLVESGGGLVQAGGSLRLSCAASGSIFTYNAMGWYRQAPGKDRELVAAIRLSGGSTYYADSVKGRFTISRDNAKNTVYLQMTSLNPEDTAVYYCAAESAAASGVYSVEYDYWGQGTQVTVSS | low polyreactivity
15 | QVQLVESGGGLVQAGGSLRLSCAASGRTFSLYAMGWYRQAPGNDRELVAAISYNGGRTYYADSVKGRFTISRDNAKNTVYLQLNCLKQDDTAVYYCAADHGDPGGYDYWGQGTQVTVSS | high polyreactivity
16 | QVQLVESGGGLVQAGGSLRLSCAASGRTFGAYAMGWYRQAPGKERELVATITVSGGSTYYADSVKGRFTISRDNAMNTVSLQLNSLKPEDTAVYYCATEFYEEYWGQGTQVTVSS | low polyreactivity
17 | QVQLVESGGGLVQAGRSLRLTCAASGRTFWWYAMGWYRQAPGKEWEFVAAISQRGTSTYYADSVKGRFTISRDNAKNTVYLQMNSLKPEDTAVYDCAATVYPSWYVLFTARRMDYWGQGTQVTVSS | high polyreactivity
18 | QVQLVESGGGLVQAGGSLRLSCAASGSIFAAYTMGWYRQAPGKERELVAAISVSTVSTNYADSVQGRFTISRDNAKNTVFLQMNRLKPEDTAVYYCNADATDSYPEKDEHDSWGQGTEVTVSS | low polyreactivity
19 | QVQLVESGGGLVQAGGSLRLSCAASGSTLDEYVMGWYRQAPGKEREFVAAISRSGSSTYYADSVKGRFTISRDNAKNTVYLQMNSLKPEDTAVYYCAARLYSSVVRYRYGYWGQGTQVTVSS | high polyreactivity
20 | QVQLVESGGGIVQAGGSLRLTCAASGSIFVNNAIGWYIQAPGKERELVADIRRSGGNTYYADSVKGRFTISRDNAKNTVYLQMNSLKPEDTAVYYCNVVRRADSIRAKSRDYWGQGTQVTVSS | high polyreactivity
21 | QVQLVESGGGLVQAGGSLRLSCAASGRIFYYNAMGWYRQAPGKESELVAAIRYSGGSTSYADSVKGRFTISRDNAKNTVYLQMNSLKPEDTAVYYCAASTSNRWKLNYWGQGTQVTVSS | high polyreactivity

Row | Sequence | polyreactivity (PSR sort gate)
22 | QVQHVESGGGLVQAGGSLRLSSAASGSIIGYYAMGWYRQAHGKERELVAAITWSGGRTYYADSVKGRFTISRDNAKNTVYFQMNSLKPEDTAVYYSNAANSRSAYYNWGHGTQVTVSS | high polyreactivity
23 | QVQLVESGGGLVQAGGSLRLSCAASGRTFSAYAMGWYRQATGQERELVAAISRSGGSTYYADSVKGRFTISRDNAKNTVYLQMNSLKPEDTAVYYCAAKGGSGLYNWGQGTQVTVSS | high polyreactivity
24 | QVQLVESGGGLVQAGGSLRLSCAASGRTFPGNDMGWYRQAPGKERELDAAISSDDSTYYADSVKWRFTMSRDNAKNTVYLKMNSLKPEDTAVYYCNAEYYEGYIGVPGSYWPYEYWGQGTQVTVSS | low polyreactivity
25 | QVQLVESGVGIVEAGGSLRLSCAASGRSFTYNAMVWYRQAPGKERELVAAISNTGSTYYADSVKGRFTISRDNAKNSVYLQMNCVKPEDTAVYYCAADRAEFRQDDDPGESNYWGQGTQVTVSS | low polyreactivity
26 | QVQLVESGGGLVQAGGSLRLSCAASGITFARYAMAWYRPAPGKERELVAAISKRGGRTYYADSVKGRFTISRDNAKNTFYLQMNSLKPEDTAVYYCATDYYVSTDYNYWGQGTQVTLSS | high polyreactivity
27 | QVQLVESGGGLVHAGGSLRLSCAASGRISSSYAMGWYRQAPGKERELVAAITSRGGSTYYADSVKGRFTISRDNAKNTVYLQMNSLKPEDTAVYYCAKYQYYRSTDDYWGQGTQVTVSS | low polyreactivity
28 | QVQLVESGGGLVQAGGSLRLSSAASGSTYVGYTMGWYRQAPGKERELVAAITRRSGSTYYAVSVKGRFTISRDNAKNTVYLQLNSLKPEDTAVYYCAKDFSRYSRVAHTEHDYWGQGTQVTVSS | high polyreactivity
29 | QVHLVESGAGLVQAGGSLRLSCAASGSTFAPNAMGWYRQAPGKERELVAAISSGGDSTNYADSVKGRFTISRDNAKNTVYLQMNSLKPEDTEVYYCAHGYWFVAYDYWGEGTQVTVSS | low polyreactivity
30 | QVQLVESGGGLVQAGGSLRLSCAASGNIFTTYAMGWYRQAPGKERELVAAISRTGGRTSYADSVKGRFTISRDNAKNTVYLQMNSLKPEDTAVYYCAAVPTVRPSAPRARILSDYWGQGTQVTVSS | high polyreactivity
31 | QVQLVESGGGLVQAGGSLRLSCAASGRTFGINAMGWYRQAHGKERELVAVISFGDGGTYYADSVKGRFTISRDNAKNTVYLQMNSLKPEDTAVYYCATDYQSTSVWGGHFVINPYDYWGQGTQVTVSS | low polyreactivity
32 | QVQLVDSGGGLVQAGGSLSLSCAASGSTFGYYSMGWYRESPGKERELVAAITWSGDSTYADSVKGRFTISRDNAKNTVYLQMNSLKPEDTAVYYCARRGFLGHWPRPSYDYWGQGTQVTVSS | low polyreactivity
33 | QVQLVESGGGLVQAGGSLRLSCAASGFTFRYYAMGWYRQAPGKERELVAAITRRSGSTYYADSVKGRFTISRDNAKNTVYLQMNSLKPEDTAVYYCAARASTIMGSWGQGTQVTVSS | high polyreactivity
34 | QFQLEESGGGLVQAGGSLRLSCAASGSTFWYNAMVWYIQATGKEMELVAAISSSGGSTYYADSVKGRFTISRDNAKYTVYLQMNSLKPEDSAVYYCNTRYVYTRGGTLKRDYLGQGTQVTVSS | high polyreactivity
35 | QVQLVESGGGLVQAGGSLRLSCAASGSIFDVNAMGWYRQAPGKERELVAAISDSTTSTYYADSVKGRFTISRDNAKNTVYLQMNSLKPEDTAVYYCNTPGLPIDSEYDYWGQGTQVTVSS | low polyreactivity
36 | QVQLVESGGGLVQAGGSLRLSCAASGFIFYDYAMGWYRQAPGKERELVAVITRGGSTYYADSVKGRFTISRDNAKNTVYLQMNSLKPEDTAVYYCAAYWFTPGFTFDYWGQGTQVTVSS | low polyreactivity
37 | QVQLVESGGGLVQAGGSLRLSCAASGSIFYNYAMGWYRQAPGKEREFVAAISWSGDTTYYADSVKGRFTISRDNAKNTVYLQMNSLKPEDTAVYYCAAESYIWFWRPYYYWGQGTQVTVSS | low polyreactivity
38 | QVQLVESGGGLVQAGGSLRLSCAASGFTFRWYAMGWYRQAPGKERELVAAISSGGGSTYYADSVKGRFTISRDNAKNTVYLQMNSLKPEDTAVYYCNARIQYFKYRGYEYWGQGTQVTVSS | high polyreactivity
39 | QVQLVESGGGLVQAGGSLRLSCAASGSTIYGYAMGWDRQAPGKERELVAAISYRGGSTYYADSVKGRFTISRDNAKNTVYLQMNSLKPEDTAVYYCAALGDDATSYGYWGQGTQVTVSS | high polyreactivity
40 | QVQLVESGGGLVQAGGSLRLSCAASGRIISYNAMGWYRQAPGKERELVAAISWGGGSTYYADSVKGRFTISRDNAKNTVYLQLNSLKPEDTAVYYCAKGWYRIKRNDYWGQGTQVTVSS | low polyreactivity
41 | QVQLVESGGGLVQAGGSLRLSCAASGSIFIRYAMGWSRQAPGTEREWVAAITSTGSTSYADSVNGRFTISRDNAKNTVYLQMNRLTPEDTAVYYCAKEASLVQGVIGGYPYDSWGQGTQVTVSS | low polyreactivity
